We go through one molecule from patent US6998124 (GlaxoSmithKline, dated 2006).

In assay [1] the target is T1, human erythropoietin receptor on the cell surface (human, UniProt P19235 25-508).
T1 construct: whole, on cells; also called wild type EpoR on UT7-Epo cells; cell surface erythropoietin receptors
T1 sequence (looked up): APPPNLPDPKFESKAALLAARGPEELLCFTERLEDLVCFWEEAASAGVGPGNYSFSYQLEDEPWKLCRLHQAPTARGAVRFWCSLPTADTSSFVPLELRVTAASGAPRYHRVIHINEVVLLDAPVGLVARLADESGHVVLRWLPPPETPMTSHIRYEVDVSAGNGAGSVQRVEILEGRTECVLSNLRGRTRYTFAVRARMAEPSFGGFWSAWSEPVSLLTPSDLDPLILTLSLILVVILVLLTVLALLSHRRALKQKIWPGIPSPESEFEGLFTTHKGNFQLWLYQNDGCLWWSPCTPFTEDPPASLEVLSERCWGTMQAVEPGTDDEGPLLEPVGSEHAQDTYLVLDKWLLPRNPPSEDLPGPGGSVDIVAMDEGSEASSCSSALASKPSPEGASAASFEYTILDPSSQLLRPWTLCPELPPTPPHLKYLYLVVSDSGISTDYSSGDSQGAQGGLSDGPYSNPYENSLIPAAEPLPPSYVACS
The assay is described as follows: competition with 1 nM 125I-labeled Epo for binding to UT7-Epo cells, 5 hrs at 4 C, cell-bound radioactivity counted; blocked ligand: Epo. As to the method: Following 5 hrs incubation at 4° C., the cells were spun through horse serum, frozen, and the pellets clipped off and radioactivity counted. […] Hematocrit was measured following a single i.v. dose of Hz3G9 at 0.1, 0.5, 1 and 5 mg/kg into cynomolgus macaques.

Assay [2] concerns the target T2, soluble dimeric erythropoietin receptor (EpoRFc) (human, UniProt P19235 25-250).
T2 construct: also called Epo-Rec-Fc; not shown: Fc part
T2 sequence (looked up): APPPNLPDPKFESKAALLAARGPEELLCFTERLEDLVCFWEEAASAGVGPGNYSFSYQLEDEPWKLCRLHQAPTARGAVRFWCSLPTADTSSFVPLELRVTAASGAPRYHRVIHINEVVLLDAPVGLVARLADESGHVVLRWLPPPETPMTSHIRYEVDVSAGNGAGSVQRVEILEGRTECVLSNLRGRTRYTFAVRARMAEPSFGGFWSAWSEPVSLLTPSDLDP
The assay is described as follows: BIAcore, mAb captured on rabbit anti-mouse Fc surface, EpoRFc injected at 0.25-6 ug/ml; soluble dimeric EpoRFc. The method, then: (§1) EpoR or EpoRFc diluted in HBS buffer at 0.25–6 ug/ml was then injected for 120 s followed by buffer flow for 240 s and regeneration of the sensor chip surface with an injection of 15 ul 0.1 M phosphoric acid. BIAcore software was used for association and dissociation-phase analysis.

For assay [3], the target named is T2, soluble dimeric erythropoietin receptor …. The assay is described as follows: BIAcore, calculated from kass and kdiss; soluble dimeric EpoRFc. The method, then: as §1

As usually defined, the koff is a measure of how fast the partners let go of each other. A lower koff goes with a long-lived complex. A word on the kon: it is the second-order rate constant of association. Low values mean slow association, high ones fast association. A word on the Kd: it is a measure of binding affinity in units of concentration.

B1: murine monoclonal antibody 3G9 (antibody, V domains shown)
VH: QVQLQQPGAELVKSGASVKLSCKASGSTFTSYWMHWVKQRPGRGLEWIGRIDPNSGGTKDNEKFKSKATLTVDKPSSTAYMQLSSLTSEDSAVYYCARETYYDSSFAYWGQGTLVTVSA
VL: DIVMTQSQKFMSTSVGDRVSVTCKASQNVGTNVAWYQQKPGQSPKALIYSASYRYSGVPDRFTGSGSGTDFTLTISNVQSEDLAEYFCQQYNSYPLTFGAGTKLELKR
modifications: amino terminus of the heavy chain blocked with pyroglutamic acid
notes: Mouse hybridoma antibody; also called 3G9 mAb; Mab 3G9
B1: the “IC50 (read off the curve)” value in assay [1] is ~1 ng/mL. For the same molecule, in assay [2], the koff amounted to 0.0019 s⁻¹ and the kon is 3e+06 M⁻¹ s⁻¹. In addition, the dissociation constant Kd in assay [3] is 600 pM.
